Experimental findings from the nanobody polyreactivity screen of Harvey et al. (2022) are described below.

The nature of the series: yeast display, Sf9 membrane polyspecificity reagent, FACS + sequencing; frameworks hold sequencing errors. In short, it runs like this: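 After 36–48 hours of galactose induction, yeast (Saccharomyces cerevisiae BJ5465) displaying a synthetic nanobody library were stained at 4 °C for 1 hour with 10% biotinylated, detergent-solubilized Sf9 membrane reagent. Streptavidin microbeads enriched the stained cells before FACS sorting into low and high (top ~1%) gates on anti-HA and streptavidin fluorescence. Each clone's polyreactivity label reflects its gate of origin.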
Consider “QVQLVESGGGLDQAGGSLRLSCAASGSTFYLYAMGWYRQAPGKERELVAAISSGGRTNYADSVKGRFTISRDNAKNTVYLQMNSLKPEDTAVYYCAARIQWPTWSLYYYWGQGTQVTVSS”, for which the “polyreactivity (PSR sort gate)” value was “high polyreactivity”.
The result for “QVQLVESGGGLVQAGGSLRLSCAASGSIFLGYTMGWYRQAPGKERELVAAINSSGGSTYYADSVKGRFTISRDNAKNTVYLQMNSLKPEDTAVYYCADANSILLFDSWGQGTQVTVSS” reads “low polyreactivity”; that for “QVQLVESGGGLVQAGGGLRLSCAASGSIFRSNTMGWYRQAPGKERELVAGISYSGGSTYADSVKGRFTISRDNAKNTVYLQMNSLKPEDTAVYYCARRVYSYDVLYFSYYYWGQGTQVTVSS”, “low polyreactivity”.
With “QDQLVESGGGLVKAGGSLRLSCAASGGTFYYYAMGWYRQAPGKERELVAANTRSGGNAYYADSVKARFTISRDNAKNTVYLLLHSLKPEDTAVYYCAAPFVNFVGSLVYAGYDSCGQGTQVTVSS”, the “polyreactivity (PSR sort gate)” value was “low polyreactivity”.
As to “QVQLVESGGGLVQAGGSLRLSCAASGFIFAYNAMGWYRQAPGKERELVAAISRSGGSTRYADSVKGRFTISRDNAKNTVYLQMNSLKPEDTAVYYCAARSGSWGQGTQVTVSS”, the “polyreactivity (PSR sort gate)” value is “high polyreactivity”.
Next, “QVQLVESGGGLVQAGGSLRLSCAASGRTFYYYAMGWYRQAPGKEREMVATISGGSSTNYADSVKWRFTISRDNAKNTVYLQMNSLKPEDTAVFYCAARWWRGGGYRPNYYKLKYDYWGQGTQVTVSS”: “high polyreactivity”.
Next, “QVQLVESGGGLVQAGGSLRLSCAASGRTFSYAMGWYRQAPGKERELVAAISSGARTYYADSVKGRFTISRDNAKNTVYLQMNSLIPEDTAVYYCNARSRYEGLNYWGHGTQVTVSS”: “high polyreactivity”; “QVQLVESGGGLVQAGGSLRLSCAASGRILYHYAMGWYRQAPGKERELVAAITFSGDTTYYADSVKGRFTISRDNAKNTVYLQMNSLKPVDTAVYYCNTVYYWNYVSRLYDYWGQGTQVTVSS”: “high polyreactivity”; “QVQLVESGGGLVQAGGSLRLSCAASGRIFNTYAMGWFRQAPGKERELVAAITRSAGRTYYADSVKGRFTISRDTAKNTVYLQMNSLKPEDTAVYYCAAQYNYGQRSGPYGYWGQGTQVTVSS”: “low polyreactivity”.
Turning to “QVQLVESGGGLVQAGRSHRLSCAASGFTFAPNAMGWYRQAPGKERELVARIDRAGSTYYADSVKGRFTISRDNAKNTVYLQMNSLKPEVTAVYYCAVVAVLSRPYATKFDYWGQGTQVTVSS”, the “polyreactivity (PSR sort gate)” value is “low polyreactivity”.
Next, “QVQLVESGGGLVQAGGSLRLSCAASGRTFQFYAMGWYRQAPGKERELVAAISSGGSTNYADSVKGRFTISRDNAKNTVYLEMNSLKPEDSAVYYCAKRPWYHADWWDDHWGQGTQVTVSS”: “high polyreactivity”; “QDQLVESGGGLVQAGGSLRLTCAASGFNYRRNAMGWYRQAPGKERELVAAITASGGRTYYADSVKGRFTISRDNAKNTVYLQMNSLKPEDTAVDYCARDTAGFTRFSSKYDYWGQGTQVTLSS”: “high polyreactivity”.
The result for “QVQLVESGAGLVQAGGSLRLSCAASGSIFWYNAMGWYRQAPGKERELVAAITSGGTTSYADSVKGRFTISRDNAKNTVYLQMNSLKPEDTAVYYCNADAVPFPTLVTYLYDYWGQGTQVSVSS” reads “low polyreactivity”.
Next, “QVQLVESGGGLVQAGGILRLSCAASGITFPANAMGWYRQAPGKQRELVAAISSYGGSTYYADSVKGRFTISRDNAKNNVYFQMNSLKPEDTAVYYCAAYLSSLGRKYYYWGQGTQVTVSS”: “high polyreactivity”; “QVQLVESGGGLVQAGGSLRLSCAASGSTFYTYAMGWYRQAPGKERELVAAISSGGGTTYADSVKGRFTISRDNAKNTVYLQMNSLKPEDTAVYYCAAVTRDYRNDRRRQRYYYWGQGTQVTVSS”: “high polyreactivity”.
For the sequence “QVQLVESGGGLVQAGGSLRLSCAASGRIFGVYAMGWYRQAPGKERELVAAITFNAGSTYYADSVKGRFTISRDNAKNTVYLQMNSLIPEDTAVYYCNAYTESWYPIYFFGWSYTDVDYWGQGTQVTVSS”, the “polyreactivity (PSR sort gate)” value is “low polyreactivity”.
Turning to “QVQLVESRGGLVQAGCSLRLRCAASGFIFSWYAMGWYRHAPGKERELDAAISASGTSTYYADSVKGRFTISRDNAKNTVYLQMNSLKPEDTAVYYCAAEFVTEYLYGFVYEYDSWGQGTQVTVSS”, the “polyreactivity (PSR sort gate)” value is on record as “low polyreactivity”.
As for “QVQLVESGGGLVQAGGSLRLSCAASGLSFSGNVMGWYRQAPGKERELVAAIDRSGGSTYYADSVKGRFTISRDNAQKTVYLQMNSLKPEDTAVYYCAVSSYPNHSRSWDDYWGQGTQVTVSS”, the “polyreactivity (PSR sort gate)” value is “low polyreactivity”.
With “QVQLVESGGGLVQAGGSLRLSCAASGRIFEYYAMGWYRQAPGKERELVAAINTGGNTYYADSVKGRFTLSRDNAKNTVYLQMNSLKPEDTAVYYCATYPIWYCGYLSGTDYDYWGQGTQVTVSS”, the “polyreactivity (PSR sort gate)” value is “low polyreactivity”.
Take “QVQLVESGGGLVQAGGSLRLSCAASGFTSYRYAMGWYRQAPGKERELVAAISSSGRTDYADSVKGRFTISRDNAKNSVYLQMNSLKPEDTAVYYCAARTYSYVGRYKFDYWGQGTQVTVSS”: the “polyreactivity (PSR sort gate)” value is on record as “high polyreactivity”.
Next, “QVQLVESGGRLVQAGGSLRLSCAASGFIYTPNTMGWYRQAHRKERELVAAITTNGGRTYYADSVKGRFTISRDNAKNTVYFQMNSVKPEDTAVYYCAARYVSSFGLHAQVWSYYYWGLGTQVTVSS”: “high polyreactivity”; “QVQLVESGGGLVQAGGSLRLSFADSGYNFPLYAMGWYIQAPGKERELVADINIGGASTYYADSVKGRFTISRDNAKNTFYLQMNSLKPEDTAVYSCAARDCYQRRQRRYDYWGQGTQVTVSS”: “low polyreactivity”; “QVQLVESGGGLVQAGGSLRLSCAASGRTFTGYAMGWYRQAPGKERELVASISRRGGSTYYADSVKGRFTISRDNAKNTVYLQMNSLKPEDTAVYSCAADSVRHTYSWWYAVDYWGQGTQVTVSS”: “high polyreactivity”.
Next, “QVQLVESGGGLVQAGGSLRLSCAASGRTLWYYTMGWYRQAPGKERELVADITRGTSTNYADSVKGRFTISRDNAKNTVYLQMNSLKPEDTAVYHCNRAHGRSRYSRDYDSWGQGTQVTVSS”: “low polyreactivity”; “QVQLVESGGGLVQAGGSLRLSCAASGFTFDSYAMGWYRQAPGKERELVAAITSDGSTYYADSVKGRFTISRDNAKNTVYLQMNSLKPEDTAVYYCAADGISLYATAYDYWGQGTQVTVSS”: “low polyreactivity”; “QVQLVESGGGLVQAGGSLRLSCAASGLIFLYYTMGWYRQAPGKERELVAAISSAGRTNYADSVKGRFTISRDNAKNTVYLQMNSLKPEDTAVYYCNADGGWWARYGYWGQGTQVTVSS”: “low polyreactivity”.
With “QVQLVESGGGLVQAGGSLRLSCAASGFIFFSYAMGWYRQAPGKEREFVASISGRTGSTYYADSVKGRFTISRDNAKNTVYLQMNSLKPEDTAVYYCNARIVHSFRYDYWGQGTQVNVSS”, the “polyreactivity (PSR sort gate)” value was “low polyreactivity”.
Next, “QVQLVESGGGLVQAGGSLRLSCAASGSTFGYYAMGWYRQAPGKERELVAGISSGGTTKYADSVKGRFTISRDNAKNTVYLQMNSLTPVDTAVYYCAARFRRTRVTYYYWGQGTQVTVSS”: “high polyreactivity”.
With “QVQLVESGGGLVQAGGSLRLSCAAYGSIFSYNAMGWYRPAPGKERELVAAITKSGGRTYYADSVKGRFTISRANAKNTVYLQMNSLKPEDTAVYYCNARSGSQYDYWGQGTQVTVSS”, the “polyreactivity (PSR sort gate)” value was “high polyreactivity”.
The result for “QVQHVDSGGGLDHAGGSLRLSCAASGSIFAGYAMGWYRQAPAKERELDAAISSTGGRTYYADSVKGRFTISRDNAKTSVYLQMNSLKPEDTAVYYCGGAYYASYYYWGQGTQVTVSS” reads “high polyreactivity”; that for “QVQLVESGGGVVQSGGSLRLSCAASGRTFNHYAMGWYRQAPGKERELVAGITISGGSTYYADSVKGRFTISRDNAKNTVYLQMNSLKPEDTAVYYCNAVYDYYRQSKWTMDYWGQGTQVTVSS”, “low polyreactivity”.
The result for “QVQLVETGGGLVQAGGILRLSCAASGSTFYRNAMGWYRQAPGKERELVAAINSTDSTNYADSVKGRFTISRDNAKNTVYLQMNSLKPEDTAVYFCAAVGVNLATAEYDYWGQGTQVTVSS” reads “low polyreactivity”; that for “QVQLVESGGGIVQAGGSLRLSCSASGRNSGVNAMGSYRQAPGKERELVATISGSGGRTYYADSVKERFTISRDNAKNTVYLQMNSLKPEDTAVYYCNTLVQRGGYFSRGFDYWGQGTQVTVSS”, “low polyreactivity”; that for “QVQLVESGGGLVQAGGSLSLSCAATGRIFDGNVMGWYRQAPGKERELVAAISSGDSTNYADSVKGRFTISRDNAKNTVYLQRNSLKTEDTAVYDCNRTPNSGGYDRFYGGDFYYWGQGTQVTVSS”, “low polyreactivity”.
The result for “QDQHVESEVGLVQAGGSLRLSCAASGSTVYPYAKGWYRKAPGKERELDAAISSGGSTYYADSVKGRFTISRDNAKNTVYLQMNSLKPEDTAVYYCAADFYYAYYWGQGSQVTVSS” reads “low polyreactivity”.
In the case of “QVQLVESGGGLVQAGGSLRLSCAASGRIFTWYAMGWYRQAPGKERELVAVISSGGSTYYADSVKGRFTISRDNAKNTVYLQMNSLKPEDTAVYYCAARRSYYGRSYYYWGQGTQVTVSS”, the “polyreactivity (PSR sort gate)” value is recorded as “high polyreactivity”.
The result for “QVHLVESGGGLVQAGGSLRLSCAASGSILSDNTLGWYRQAPGKERELVAAISRSGGTTYYADSVKGRFTISRDNAKNTVYLQMNSLKPEDTAVYYCAARYYYRYNYWGQGTQVTVSS” reads “high polyreactivity”.
Next, “QVQLVESGGGLVQAGGSLRLSCAASGLIFRKNAMGWDRQAPGKERELVAAMSYNGASTYYADSVKGRFTISRDNAKNTVYLQMNSLKPEDTAVYYCAAYAGYSDQARYYYWGQGTQVTVSS”: “high polyreactivity”; “QVQLVESGGGLVQAGGSLRLSCAASGRIFLGHDMGWYRQAPGKERELVATISSSGDSTYYADSVKGRFTISRDNAKNTVYLQMNSLKPEDTAVYYCAVKSTDVPVRGSPYDYWGQGTQVTVSS”: “low polyreactivity”.
The result for “QVQLVESGGGLVQAGGSLRLICAASGYIFDHYAMGWYRQAPGKERELVAAINWSGGRTYYADSVKGRFTISRDNAKNTVYLQMNSLKPEDTAVYYCAAGGVSENDYWGQGTQVTVSS” reads “high polyreactivity”.
